Measured values from paper PMC3823998, “Structural and Functional Characterization of the Redβ Recombinase from Bacteriophage λ” (PLoS ONE, 2013).

Biological target: T1, Redβ R149A (Bacteriophage λ (Enterobacteria phage λ), UniProt P03698 1-261, R149A)
T1 sequence: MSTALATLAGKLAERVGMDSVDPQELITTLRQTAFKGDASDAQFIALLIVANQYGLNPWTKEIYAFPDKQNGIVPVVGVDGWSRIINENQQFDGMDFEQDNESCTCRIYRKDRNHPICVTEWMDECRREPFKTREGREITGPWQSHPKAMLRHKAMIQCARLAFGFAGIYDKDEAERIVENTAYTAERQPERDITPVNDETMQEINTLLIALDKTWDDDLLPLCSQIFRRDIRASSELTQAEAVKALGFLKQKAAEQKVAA
Test: EMSA; glutaraldehyde-fixed; ssDNA EMSA: 10 nM DNA, 50 mM potassium phosphate pH 6.0, 5 mM EDTA, 5% glycerol, 0.1 mg/ml BSA, 37°C, 40 min, then 0.1% glutaraldehyde; second-strand EMSA: 5 nM each strand, 20 mM Tris-HCl pH 7.5, 5 mM MgCl2, 1 mM DTT, 0.1 mg/ml BSA, 37°C
Conditions: protein: recombinant; tags: His6 removed; N-terminal GSH left; label: 5' Cy3

Q: For TGCGGATGGCTTAGAGCTTAATTGCTGAATCTGGTGCTGTAGCTCAACAT (ssDNA) [50-minus ssDNA], which binding signal is on record?
A: The binding signal was 44 % of WT binding at 3 µM protein.
